Here are results for 1 molecule from US20180305438A1 (ACCELERON PHARMA, published 2018).

Holding throughout (assay): Biacore (SPR)
In general terms: Surface plasmon resonance follows binding to a sensor surface in real time, without labels.

The target of experiment [1] is hBMP2 (human, UniProt P12643 283-396).
Experiment [2] concerns the target T1, hBMP4 (human, UniProt P12644 293-408).
T1 sequence (looked up): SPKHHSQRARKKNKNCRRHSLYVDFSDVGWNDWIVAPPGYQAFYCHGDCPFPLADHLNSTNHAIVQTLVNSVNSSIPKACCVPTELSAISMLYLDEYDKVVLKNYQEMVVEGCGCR

The target in experiment [3] is T2, hBMP7 (human, UniProt P18075 293-431).
T2 sequence (looked up): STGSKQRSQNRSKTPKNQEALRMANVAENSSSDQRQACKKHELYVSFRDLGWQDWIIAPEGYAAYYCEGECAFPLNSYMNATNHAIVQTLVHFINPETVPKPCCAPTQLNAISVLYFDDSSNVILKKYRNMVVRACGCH

hBMP2, sequence (P12643 283-396 limits assumed): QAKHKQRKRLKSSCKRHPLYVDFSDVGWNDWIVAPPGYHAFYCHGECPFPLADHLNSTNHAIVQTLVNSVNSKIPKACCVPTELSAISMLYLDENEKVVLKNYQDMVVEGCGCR

B1: mALK3(24-152)-mFc derived from HEK 293 cells (Fc fusion)
chain: GAQNLDSMLHGTGMKSDLDQKKPENGVTLAPEDTLPFLKCYCSGHCPDDAINNTCITNGHCFAIIEEDDQGETTLTSGCMKYEGSDFQCKDSPKAQLRRTIECCRTNLCNQYLQPTLPPVVIGPFFDGSIRTGGGEPRVPITQNPCPPLKECPPCAAPDLLGGPSVFIFPPKIKDVLMISLSPMVTCVVVDVSEDDPDVQISWFVNNVEVHTAQTQTHREDYNSTLRVVSALPIQHQDWMSGKEFKCKVNNRALPSPIEKTISKPRGPVRAPQVYVLPPPAEEMTKKEFSLTCMITGFLPAEIAVDWTSNGRTEQNYKNTATVLDSDGSYFMYSKLRVQKSTWERGSLFACSVVHEGLHNHLTTKTISRSLGK
notes: The Gly-Ala at 23-24 may also be absent, since the main species of the human construct starts at Gln; also called mALK3-mFc
Turning to B1, the results for the Kd in experiment [1] and in experiment [2] were 2.43 nM and 0.947 nM, respectively. Moreover, the binding result in experiment [3] was “binds”.
